Values of other authors, collected in US20200216492A1, “USE OF C-TERMINALLY EXTENDED PEPTIDES TO DISRUPT INHIBITOR NK CELL RECEPTOR INTERACTIONS WITH MHC I” (La Jolla Institute for Allergy and Immunology, priority 2016, published 2020).

Biological target: HLA-B*57:01 (Homo sapiens, UniProt P01889, D201E/D98Y/E176V/E187L/E204Q/E69M/E70A/G107R/I90N/K202T/L105A/L119I/N104I/N87E/Q89R/Q94S/R106L/R155S/R180L/R86G/S101N/S121V/S35A/S48A/T118I/V36M/Y140S/Y91M)
Conditions: previously determined; read-out: binding affinity KD to HLA-B*57:01

B1: KIR3DL1: inhibitory killer immunoglobulin receptor on NK cells binding HLA-B*57:01 (protein, UniProt P43629 22-444, looked up)
Killer cell …: HMGGQDKPFLSAWPSAVVPRGGHVTLRCHYRHRFNNFMLYKEDRIHIPIFHGRIFQESFNMSPVTTAHAGNYTCRGSHPHSPTGWSAPSNPVVIMVTGNHRKPSLLAHPGPLVKSGERVILQCWSDIMFEHFFLHKEGISKDPSRLVGQIHDGVSKANFSIGPMMLALAGTYRCYGSVTHTPYQLSAPSDPLDIVVTGPYEKPSLSAQPGPKVQAGESVTLSCSSRSSYDMYHLSREGGAHERRLPAVRKVNRTFQADFPLGPATHGGTYRCFGSFRHSPYEWSDPSDPLLVSVTGNPSSSWPSPTEPSSKSGNPRHLHILIGTSVVIILFILLLFFLLHLWCSNKKNAAVMDQEPAGNRTANSEDSDEQDPEEVTYAQLDHCVFTQRKITRPSQRPKTPPTDTILYTELPNAKPRSKVVSCP
For B1, the Kd is given as 17 µM.
